Legend:
[1] = biological target: T1, human FcγRIIb receptor on CHO-K1 cells (clone 223) (human, UniProt P31994 43-310); assay: cell-based or functional assay
T1 sequence (looked up): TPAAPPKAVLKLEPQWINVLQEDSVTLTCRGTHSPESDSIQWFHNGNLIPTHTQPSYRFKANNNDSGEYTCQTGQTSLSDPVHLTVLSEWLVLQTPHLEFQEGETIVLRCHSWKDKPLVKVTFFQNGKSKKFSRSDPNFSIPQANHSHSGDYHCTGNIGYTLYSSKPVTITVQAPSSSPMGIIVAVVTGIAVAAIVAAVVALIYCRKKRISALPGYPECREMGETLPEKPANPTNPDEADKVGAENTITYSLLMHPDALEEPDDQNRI

[2] = biological target: T2, human CCL2 (MCP1) - wild type (wt) (human, UniProt P13500 24-99); assay: SPR, C1 chip, anti-human Fc capture, 25 C, pH 7.4, Langmuir 1:1
T2 construct: Made in-house or bought (R&D Systems 279-MC), depending on the assay; can form dimers; also called wt human CCL2; WT human CCL2
Procedure: The sample and system buffer was PBS-T (10 mM phosphate buffered saline including 0.05% Tween20) pH 7.4. The flow cell was set to 25° C.—and the sample block set to 12° C.—and primed with running buffer twice. The bispecific antibody was captured by injecting a 2 μg/ml solution for 60 see at a flow rate of 10 μl/min. Association was measured by injection of human CCL2 (wt) in various concentrations in solution for 150 see at a flow rate of 30 μl/min starting with 30 nM in 1:10 dilutions. The dissociation phase was monitored for up to 1200 sec and triggered by switching from the sample solution to running buffer. […] Bulk refractive index differences were corrected by subtracting the response obtained from a goat anti human IgG Fc surface. Blank injections are also subtracted (=double referencing). For calculation of kinetic parameters, the Langmuir 1:1 model was used.

B1: CKLO2-GG02 (=P1AF8139) (bispecific antibody)
heavy 1: DIQMTQSPSSLSASVGDRVTITCKAFEDIYNRRAWYQQKPGKAPKLLIHGATSLEHGVPSRFSGSGSGTDYTLTISSLQPEDFATYYCQQFWSAPYTFGGGTKVEIKSSASTKGPSVFPLAPSSKSTSGGTAALGCLVKDYFPEPVTVSWNSGALTSGVHTFPAVLQSSGLYSLSSVVTVPSSSLGTQTYICNVNHKPSNTKVDKKVEPKSCDKTHTCPPCPAPEYLGGDSVFLFPPKPKDVLMISRTPEVTCVVIDVSHEDPEVKFNWYVDGVEVHNAKTKPREEQYNSTYRVVSVLPVLHRDWLNGKEYKCKVSNKALPKPIEKTISKAKGQRREPQVYTLPPCRDELTKNQVSLWCLVKGFYPSDIAVEWESNGQPENNYKTTPPVLDSDGSFFLYSKLTVDKSRWQQGNVFSCSVLHEALHAHTTRKELSLSP
heavy 2: not shown
light 1: QVQLVQSGAEVKKPGSSVKVSCKASGLTISHTYMHWVRQAPGQGLEWMGRIDPDNHNTKFDPKFQGRVTITADTSTSTAYMELSSLRSEDTAVYYCARGVFGFFEHWGQGTTVTVSSASVAAPSVFIFPPSDEQLKSGTASVVCLLNNFYPREAKVQWKVDNALQSGNSQESVTEQDSKDSTYSLSSTLTLSKADYEKHKVYACEVTHQGLSSPVTKSFNRGEC
light 2: EIVLTQSPATLSLSPGERATLSCRASQHVSDAYLAWYQQKPGQAPRLLIYDASDRAEGVPARFSGSGSGTDFTLTISSLEPEDFAVYYCHQYIHLHSFTFGQGTKVEIKRTVAAPSVFIFPPSDRKLKSGTASVVCLLNNFYPREAKVQWKVDNALQSGNSQESVTEQDSKDSTYSLSSTLTLSKADYEKHKVYACEVTHQGLSSPVTKSFNRGEC
Depletion level max (%) of CCL2 from the supernatant [1]: 45%
EC50 [nM] of CCL2 depletion [1]: 0.6 nM
EC90 [nM] of CCL2 depletion [1]: ~30 nM

B2: P1AF8143 (CKLO2-CB-GG02) (bispecific antibody)
chain 1: not shown
chain 2: QVQLVQSGAEVKKPGSSVKVSCKASGLTISHTYMHWVRQAPGQGLEWMGRIDPDNHNTKFDPKFQGRVTITADTSTSTAYMELSSLRSEDTAVYYCARGVFGFFEHWGQGTTVTVSSASTKGPSVFPLAPSSKSTSGGTAALGCLVKDYFPEPVTVSWNSGALTSGVHTFPAVLQSSGLYSLSSVVTVPSSSLGTQTYICNVNHKPSNTKVDKKVEPKSCGGSGGGGSGGDKTHTCPPCPAPEYLGGDSVFLFPPKPKDVLMISRTPEVTCVVIDVSHEDPEVKFNWYVDGVEVHNAKTKPREEQYNSTYRVVSVLPVLHRDWLNGKEYKCKVSNKALPKPIEKTISKAKGQRREPQVYTLPPCRDELTKNQVSLWCLVKGFYPSDIAVEWESNGQPENNYKTTPPVLDSDGSFFLYSKLTVDKSRWQQGNVFSCSVLHEALHAHTTRKELSLSPGKGGSGGGGSGGDIQMTQSPSSLSASVGDRVTITCKAFEDIYNRRAWYQQKPGKAPKLLIHGATSLEHGVPSRFSGSGSGTDYTLTISSLQPEDFATYYCQQFWSAPYTFGGGTKVEIKRTVAAPSVFIFPPSDEQLKSGTASVVCLLNNFYPREAKVQWKVDNALQSGNSQESVTEQDSKDSTYSLSSTLTLSKADYEKHKVYACEVTHQGLSSPVTKSFNRGEC
Depletion level max (%) of CCL2 from the supernatant [1]: 82%
EC50 [nM] of CCL2 depletion [1]: 0.14 nM
EC90 [nM] of CCL2 depletion [1]: 0.4 nM

B3: 1A5//1G9-PGLALA (bispecific antibody, V domains shown)
VH 1: QEQLVESGGDLVKPEGSLTLTCTASGFSFSTSYWMCWVRQAPGKGLELIACISSSIGVTYYASWAEGRFTISKTSSTTVTLQMTSLTVADTATYFCARTTDDNWNVGFNLWGPGTLVTVSS
VL 1: AYDMTQTPASVEVGVGGTVTIKCQASQSIGNRYLSWYQQKPGQPPKLLIYGTSTLASGVSSRFKGSGSGTQFTLTISGVESADSATYYCQQGATISYLDNAFGGGTEVVVK
VH 2: QSLEESGGDLVKPGASLTLTCKASGIDFSLYSYMCWVRQAPGKGLEWIACVDAGASGSTYYASWAKGRFTISKTSSTTVTLQMTSLTAADTATYFCARGILYYTWPYPAGAIDAFDSWGPGTLVTVSS
VL 2: AYDMTQTPASVSEPVGGTVTIKCQASESISNYLSWYQQKPGQPPKLLIYKASTLASGVPSRFKGSGSGTEYTVTISGVQSDDAATYYCQQSYSSSNVFNTFGGGTEVVVK
notes: CrossMab, IgG1 with L234A, L235A, P329G, knobs-into-holes; crossed arm 1A5, non-crossed arm 1G9; also called CCL2-0046; P1AA3444
binding result [2]: binds

B4: ABN912//11K2-WT IgG1 (bispecific antibody, V domains shown)
VH 1: QVQLVQSGAEVKKPGSSVKVSCKASGLTISDTYMHWVRQAPGQGLEWMGRIDPANGNTKFDPKFQGRVTITADTSTSTAYMELSSLRSEDTAVYYCARGVFGFFDYWGQGTTVTVSS
VL 1: DIQMTQSPSSLSASVGDRVTITCKATEDIYNRLAWYQQKPGKAPKLLISGATSLETGVPSRFSGSGSGTDYTLTISSLQPEDFATYYCQQFWSAPYTFGGGTKVEIK
VH 2: EVQLVQSGGGLVQPGGSLRLSCAASGFTFSHYWMSWVRQAPGKGLEWLANIEQDGSEKYYVDSVKGRFTISRDNAKNSLYLQMNSLRAEDTAVYFCARDLEGLHGDGYFDLWGRGTLVTVSS
VL 2: AIQLTQSPSSLSASVGDRVILTCRASQGVSSALAWYQQKPGKAPKLLIYDASSLESGVPSRFSGSGSGPDFTLTISSLQPEDFATYFCQQFNSYPLTFGGGTKVEIK
notes: CrossMab, wild type IgG1 with knobs-into-holes; crossed arm humanized 11K2, non-crossed arm ABN912; also called CCL2-0047; P1AA3447
binding result [2]: binds

B5: 11K2//1G9-WT IgG1 (bispecific antibody, V domains shown)
VH 1: QVQLVQSGAEVKKPGSSVKVSCKASGLTISDTYMHWVRQAPGQGLEWMGRIDPANGNTKFDPKFQGRVTITADTSTSTAYMELSSLRSEDTAVYYCARGVFGFFDYWGQGTTVTVSS
VL 1: DIQMTQSPSSLSASVGDRVTITCKATEDIYNRLAWYQQKPGKAPKLLISGATSLETGVPSRFSGSGSGTDYTLTISSLQPEDFATYYCQQFWSAPYTFGGGTKVEIK
VH 2: QSLEESGGDLVKPGASLTLTCKASGIDFSLYSYMCWVRQAPGKGLEWIACVDAGASGSTYYASWAKGRFTISKTSSTTVTLQMTSLTAADTATYFCARGILYYTWPYPAGAIDAFDSWGPGTLVTVSS
VL 2: AYDMTQTPASVSEPVGGTVTIKCQASESISNYLSWYQQKPGQPPKLLIYKASTLASGVPSRFKGSGSGTEYTVTISGVQSDDAATYYCQQSYSSSNVFNTFGGGTEVVVK
notes: CrossMab, wild type IgG1 with knobs-into-holes; crossed arm humanized 11K2, non-crossed arm 1G9; also called CCL2-0049; P1AA3461
binding result [2]: binds

B6: 1A5//1G9-WT IgG1 (bispecific antibody, V domains shown)
VH 1: QEQLVESGGDLVKPEGSLTLTCTASGFSFSTSYWMCWVRQAPGKGLELIACISSSIGVTYYASWAEGRFTISKTSSTTVTLQMTSLTVADTATYFCARTTDDNWNVGFNLWGPGTLVTVSS
VL 1: AYDMTQTPASVEVGVGGTVTIKCQASQSIGNRYLSWYQQKPGQPPKLLIYGTSTLASGVSSRFKGSGSGTQFTLTISGVESADSATYYCQQGATISYLDNAFGGGTEVVVK
VH 2: QSLEESGGDLVKPGASLTLTCKASGIDFSLYSYMCWVRQAPGKGLEWIACVDAGASGSTYYASWAKGRFTISKTSSTTVTLQMTSLTAADTATYFCARGILYYTWPYPAGAIDAFDSWGPGTLVTVSS
VL 2: AYDMTQTPASVSEPVGGTVTIKCQASESISNYLSWYQQKPGQPPKLLIYKASTLASGVPSRFKGSGSGTEYTVTISGVQSDDAATYYCQQSYSSSNVFNTFGGGTEVVVK
notes: CrossMab, wild type IgG1 with knobs-into-holes; crossed arm 1A5, non-crossed arm 1G9; also called CCL2-0052; P1AA3446
binding result [2]: binds

B7: 11K2//2F6-PGLALA (bispecific antibody, V domains shown)
VH 1: QVQLVQSGAEVKKPGSSVKVSCKASGLTISDTYMHWVRQAPGQGLEWMGRIDPANGNTKFDPKFQGRVTITADTSTSTAYMELSSLRSEDTAVYYCARGVFGFFDYWGQGTTVTVSS
VL 1: DIQMTQSPSSLSASVGDRVTITCKATEDIYNRLAWYQQKPGKAPKLLISGATSLETGVPSRFSGSGSGTDYTLTISSLQPEDFATYYCQQFWSAPYTFGGGTKVEIK
VH 2: QSLEESGGGLVQPEGSLTLTCTASGFSFNNNYYMCWVRQAPGKGLEWIGCISTDDSNTHYASWAQGRFTISKASSTALTLQVAGLTVADMATYFCARDAHFTSYGYGFDLWGPGTLVTVSS
VL 2: DIVMTQTPASVSAAVGGTVSINCRASEDIENLVAWYQQKPGQPPKLLIYQASKLASGVPSRFKGSGSGAEFTLTIGDLESADAATYYCQGDYGSGWIMYSFGGGTDLVVK
notes: CrossMab, IgG1 with L234A, L235A, P329G, knobs-into-holes; crossed arm humanized 11K2, non-crossed arm 2F6; also called CCL2-0053; P1AA3450
binding result [2]: binds

B8: 1A5//2F6-PGLALA (bispecific antibody, V domains shown)
VH 1: QEQLVESGGDLVKPEGSLTLTCTASGFSFSTSYWMCWVRQAPGKGLELIACISSSIGVTYYASWAEGRFTISKTSSTTVTLQMTSLTVADTATYFCARTTDDNWNVGFNLWGPGTLVTVSS
VL 1: AYDMTQTPASVEVGVGGTVTIKCQASQSIGNRYLSWYQQKPGQPPKLLIYGTSTLASGVSSRFKGSGSGTQFTLTISGVESADSATYYCQQGATISYLDNAFGGGTEVVVK
VH 2: QSLEESGGGLVQPEGSLTLTCTASGFSFNNNYYMCWVRQAPGKGLEWIGCISTDDSNTHYASWAQGRFTISKASSTALTLQVAGLTVADMATYFCARDAHFTSYGYGFDLWGPGTLVTVSS
VL 2: DIVMTQTPASVSAAVGGTVSINCRASEDIENLVAWYQQKPGQPPKLLIYQASKLASGVPSRFKGSGSGAEFTLTIGDLESADAATYYCQGDYGSGWIMYSFGGGTDLVVK
notes: CrossMab, IgG1 with L234A, L235A, P329G, knobs-into-holes; crossed arm 1A5, non-crossed arm 2F6; also called CCL2-0055; P1AA3402
binding result [2]: binds

B9: 11K2//2F6-WT IgG1 (bispecific antibody, V domains shown)
VH 1: QVQLVQSGAEVKKPGSSVKVSCKASGLTISDTYMHWVRQAPGQGLEWMGRIDPANGNTKFDPKFQGRVTITADTSTSTAYMELSSLRSEDTAVYYCARGVFGFFDYWGQGTTVTVSS
VL 1: DIQMTQSPSSLSASVGDRVTITCKATEDIYNRLAWYQQKPGKAPKLLISGATSLETGVPSRFSGSGSGTDYTLTISSLQPEDFATYYCQQFWSAPYTFGGGTKVEIK
VH 2: QSLEESGGGLVQPEGSLTLTCTASGFSFNNNYYMCWVRQAPGKGLEWIGCISTDDSNTHYASWAQGRFTISKASSTALTLQVAGLTVADMATYFCARDAHFTSYGYGFDLWGPGTLVTVSS
VL 2: DIVMTQTPASVSAAVGGTVSINCRASEDIENLVAWYQQKPGQPPKLLIYQASKLASGVPSRFKGSGSGAEFTLTIGDLESADAATYYCQGDYGSGWIMYSFGGGTDLVVK
notes: CrossMab, wild type IgG1 with knobs-into-holes; crossed arm humanized 11K2, non-crossed arm 2F6; also called CCL2-0056; P1AA3392
binding result [2]: binds

Reference: US20240360208A1 (Hoffmann-La Roche, published 2024)
